Here are results for one substance from US20240294622A1.

This assay concerns the target DAN-his (Sinobiological) (human) (UniProt P41271). Nature of the assay: blocking ELISA: coated BMP2, antibody pre-incubated with human DAN-his, anti-his HRP; blocked ligand BMP2; fit value of a flat control curve; unit from the axis Concentration(nM).

Chain of DAN-his (Sinobiological) (human) (P41271 17-181 limits assumed): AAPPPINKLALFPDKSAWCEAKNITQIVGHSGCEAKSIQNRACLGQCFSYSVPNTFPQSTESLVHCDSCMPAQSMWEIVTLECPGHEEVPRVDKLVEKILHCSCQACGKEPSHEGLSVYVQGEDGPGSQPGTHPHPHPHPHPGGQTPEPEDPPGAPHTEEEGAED

As for IgG1 (antibody), the IC50 worked out at 24.7 nM.
